Experimental data reported in IntAct's records for PubMed 31515488.

B1: Septin-12 (Homo sapiens), Q8IYM1 (parent)
chain: MDPLRRSPSPCLSSQPSSPSTPPCEMLGPVGIEAVLDQLKIKAMKMGFEFNIMVVGQSGLGKSTMVNTLFKSKVWKSNPPGLGVPTPQTLQLHSLTHVIEEKGVKLKLTVTDTPGFGDQINNDNCWDPILGYINEQYEQYLQEEILITRQRHIPDTRVHCCVYFVPPTGHCLRPLDIEFLQRLCRTVNVVPVIARADSLTMEEREAFRRRIQQNLRTHCIDVYPQMCFDEDINDKILNSKLRDRIPFAVVGADQEHLVNGRCVLGRKTKWGIIEVENMAHCEFPLLRDLLIRSHLQDLKDITHNIHYENYRVIRLNESHLLPRGPGWVNLAPASPGQLTTPRTFKVCRGAHDDSDDEF
partner: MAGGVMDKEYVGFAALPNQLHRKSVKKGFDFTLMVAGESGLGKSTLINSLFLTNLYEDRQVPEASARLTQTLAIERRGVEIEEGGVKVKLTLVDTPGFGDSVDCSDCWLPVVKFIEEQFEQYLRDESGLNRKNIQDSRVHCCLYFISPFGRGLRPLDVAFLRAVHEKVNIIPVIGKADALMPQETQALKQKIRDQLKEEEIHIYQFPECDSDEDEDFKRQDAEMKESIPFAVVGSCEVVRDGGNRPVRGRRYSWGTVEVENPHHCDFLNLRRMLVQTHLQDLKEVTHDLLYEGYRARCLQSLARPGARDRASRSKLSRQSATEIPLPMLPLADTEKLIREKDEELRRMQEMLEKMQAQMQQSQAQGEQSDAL

Variants of: B1
Conditions: with sept1_human SEPTIN1, Q8WYJ6

Row | Variant | effect of a mutation on the interaction
1 | MDPLRRSPSPCLSSQPSSPSTPPCEMLGPVGIEAVLDQLKIKAMKMGFEFNIMVVGQSGLGKSTMVNTLFKSKVWKSNPPGLGVPTPQTLQLHSLTHVIEEKGVKLKLTVTDTPGFGDQINNDNCWDPILGYINEQYEQYLQEEILITRQRHIPDTRVHCCVYFVPPTEHCLRPLDIEFLQRLCRTVNVVPVIARADSLTMEEREAFRRRIQQNLRTHCIDVYPQMCFDEDINDKILNSKLRDRIPFAVVGADQEHLVNGRCVLGRKTKWGIIEVENMAHCEFPLLRDLLIRSHLQDLKDITHNIHYENYRVIRLNESHLLPRGPGWVNLAPASPGQLTTPRTFKVCRGAHDDSDDEF [G169E] | disrupting interaction strength
2 | MDPLRRSPSPCLSSQPSSPSTPPCEMLGPVGIEAVLDQLKIKAMKMGFEFNIMVVGQSGLGKSTMVNTLFKSKVWKSNPPGLGVPTPQTLQLHSLTHVIEEKGVKLKLTVTDTPGFGDQINNDNCWDPILGYINEQYEQYLQEEILITRQRHIPDTRVHCCVYFVPPTGHCLRPLDIEFLQRLCRTVNVVPVIARANSLTMEEREAFRRRIQQNLRTHCIDVYPQMCFDEDINDKILNSKLRDRIPFAVVGADQEHLVNGRCVLGRKTKWGIIEVENMAHCEFPLLRDLLIRSHLQDLKDITHNIHYENYRVIRLNESHLLPRGPGWVNLAPASPGQLTTPRTFKVCRGAHDDSDDEF [D197N] | disrupting interaction strength

Variants of: B1
Conditions: with sept1_human SEPTIN1, Q8WYJ6
Remark: another data set of the same source

Row | Variant | effect of a mutation on the interaction
3 | MDPLRRSPSPCLSSQPSSPSTPPCEMLGPVGIEAVLDQLKIKAMKMGFEFNIMVVGQSGLGKSTMVNTLFKSNVWKSNPPGLGVPTPQTLQLHSLTHVIEEKGVKLKLTVTDTPGFGDQINNDNCWDPILGYINEQYEQYLQEEILITRQRHIPDTRVHCCVYFVPPTGHCLRPLDIEFLQRLCRTVNVVPVIARADSLTMEEREAFRRRIQQNLRTHCIDVYPQMCFDEDINDKILNSKLRDRIPFAVVGADQEHLVNGRCVLGRKTKWGIIEVENMAHCEFPLLRDLLIRSHLQDLKDITHNIHYENYRVIRLNESHLLPRGPGWVNLAPASPGQLTTPRTFKVCRGAHDDSDDEF [K73N] | disrupting interaction strength
4 | MDPLRRSPSPCLSSQPSSPSTPPCEMLGPVGIEAVLDQLKIKAMKMGFEFNIMVVGQSGLGKSTMVNTLFKSKVWKSNPPGLGVPTPQTLQLHSLTHVIEEKGVKLKLTVKDTPGFGDQINNDNCWDPILGYINEQYEQYLQEEILITRQRHIPDTRVHCCVYFVPPTGHCLRPLDIEFLQRLCRTVNVVPVIARADSLTMEEREAFRRRIQQNLRTHCIDVYPQMCFDEDINDKILNSKLRDRIPFAVVGADQEHLVNGRCVLGRKTKWGIIEVENMAHCEFPLLRDLLIRSHLQDLKDITHNIHYENYRVIRLNESHLLPRGPGWVNLAPASPGQLTTPRTFKVCRGAHDDSDDEF [T111K] | disrupting interaction strength
5 | MDPLRRSPSPCLSSQPSSPSTPPCEMLGPVGIEAVLDQLKIKAMKMGFEFNIMVVGQSGLGKSTMVNTLFKSKVWKSNPPGLGVPTPQTLQLHSLTHVIEEKGVKLKLTVMDTPGFGDQINNDNCWDPILGYINEQYEQYLQEEILITRQRHIPDTRVHCCVYFVPPTGHCLRPLDIEFLQRLCRTVNVVPVIARADSLTMEEREAFRRRIQQNLRTHCIDVYPQMCFDEDINDKILNSKLRDRIPFAVVGADQEHLVNGRCVLGRKTKWGIIEVENMAHCEFPLLRDLLIRSHLQDLKDITHNIHYENYRVIRLNESHLLPRGPGWVNLAPASPGQLTTPRTFKVCRGAHDDSDDEF [T111M] | disrupting interaction strength
6 | MDPLRRSPSPCLSSQPSSPSTPPCEMLGPVGIEAVLDQLKIKAMKMGFEFNIMVVGQSGLGKSTMVNTLFKSKVWKSNPPGLGVPTPQTLQLHSLTHVIEEKGVKLKLTVTDTPGFGDQINNDNCWDPILGYINEQYEQYLQEEILITRQRHIPDTRVHCCMYFVPPTGHCLRPLDIEFLQRLCRTVNVVPVIARADSLTMEEREAFRRRIQQNLRTHCIDVYPQMCFDEDINDKILNSKLRDRIPFAVVGADQEHLVNGRCVLGRKTKWGIIEVENMAHCEFPLLRDLLIRSHLQDLKDITHNIHYENYRVIRLNESHLLPRGPGWVNLAPASPGQLTTPRTFKVCRGAHDDSDDEF [V162M] | disrupting interaction strength
7 | MDPLRRSPSPCLSSQPSSPSTPPCEMLGPVGIEAVLDQLKIKAMKMGFEFNIMVVGQSGLGKSTMVNTLFKSKVWKSNPPGLGVPTPQTLQLHSLTHVIEEKGVKLKLTVTDTPGFGDQINNDNCWDPILGYINEQYEQYLQEEILITRQRHIPDTRVHCCVYFVPPTGHCLRPLDIEFLQRLSRTVNVVPVIARADSLTMEEREAFRRRIQQNLRTHCIDVYPQMCFDEDINDKILNSKLRDRIPFAVVGADQEHLVNGRCVLGRKTKWGIIEVENMAHCEFPLLRDLLIRSHLQDLKDITHNIHYENYRVIRLNESHLLPRGPGWVNLAPASPGQLTTPRTFKVCRGAHDDSDDEF [C184S] | with no effect
8 | MDPLRRSPSPCLSSQPSSPSTPPCEMLGPVGIEAVLDQLKIKAMKMGFEFNIMVVGQSGLGKSTMVNTLFKSKVWKSNPPGLGVPTPQTLQLHSLTHVIEEKGVKLKLTVTDTPGFGDQINNDNCWDPILGYINEQYEQYLQEEILITRQRHIPDTRVHCCVYFVPPTGHCLRPLDIEFLQRLCRTVNVVPVIARADSLTMEEQEAFRRRIQQNLRTHCIDVYPQMCFDEDINDKILNSKLRDRIPFAVVGADQEHLVNGRCVLGRKTKWGIIEVENMAHCEFPLLRDLLIRSHLQDLKDITHNIHYENYRVIRLNESHLLPRGPGWVNLAPASPGQLTTPRTFKVCRGAHDDSDDEF [R204Q] | disrupting interaction strength
